Values quoted from earlier work as cited in US20030134789A1, “Compositions and methods for protecting tissues and cells from damage, and for repairing damaged tissues” (priority 2001, published 2003).

Conditions: humans, an hour after ingesting 200 g of raw peanuts

B1: peanut agglutinin (PNA): dietary lectin found in the blood of humans after ingesting raw peanuts (protein, UniProt P02872 24-273, looked up)
Galactose-binding lectin: AETVSFNFNSFSEGNPAINFQGDVTVLSNGNIQLTNLNKVNSVGRVLYAMPVRIWSSATGNVASFLTSFSFEMKDIKDYDPADGIIFFIAPEDTQIPAGSIGGGTLGVSDTKGAGHFVGVEFDTYSNSEYNDPPTDHVGIDVNSVDSVKTVPWNSVSGAVVKVTVIYDSSTKTLSVAVTNDNGDITTIAQVVDLKAKLPERVKFGFSASGSLGGRQIHLIRSWSFTSTLITTTRRSIDNNEKKIMNMASA
In the case of B1, the “level in the blood” value is given as 1000 to 5000 ng/mL.
